Experimental data published in PMC10588934.

Target: dopamine receptor D1 fused to LgBiT (UniProt P21728)
Experiment: split reporter

UniProt P21728, sequence (P21728 whole entry, the tested form may be a part): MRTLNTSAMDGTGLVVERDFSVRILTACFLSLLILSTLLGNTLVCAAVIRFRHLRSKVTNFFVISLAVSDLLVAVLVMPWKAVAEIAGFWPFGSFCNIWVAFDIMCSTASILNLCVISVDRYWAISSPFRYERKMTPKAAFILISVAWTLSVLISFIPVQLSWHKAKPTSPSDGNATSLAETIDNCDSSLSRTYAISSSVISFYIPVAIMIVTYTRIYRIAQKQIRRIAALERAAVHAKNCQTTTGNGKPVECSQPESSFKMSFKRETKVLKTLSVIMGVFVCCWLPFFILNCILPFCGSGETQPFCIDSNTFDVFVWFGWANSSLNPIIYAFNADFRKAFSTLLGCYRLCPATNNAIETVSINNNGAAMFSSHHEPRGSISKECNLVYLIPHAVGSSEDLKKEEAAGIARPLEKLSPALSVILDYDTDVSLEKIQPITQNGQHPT

DDR (luminescence with drug / without drug): 1.6
Substance: SmBiT-miniGs (domain or fragment)
